Earlier results on one substance are cited in article PMC9958082.

In the series the target is E-cadherin (Homo sapiens) (UniProt P12830). To be noted: cited from earlier work.
Chain of UniProt P12830 (P12830 155-709): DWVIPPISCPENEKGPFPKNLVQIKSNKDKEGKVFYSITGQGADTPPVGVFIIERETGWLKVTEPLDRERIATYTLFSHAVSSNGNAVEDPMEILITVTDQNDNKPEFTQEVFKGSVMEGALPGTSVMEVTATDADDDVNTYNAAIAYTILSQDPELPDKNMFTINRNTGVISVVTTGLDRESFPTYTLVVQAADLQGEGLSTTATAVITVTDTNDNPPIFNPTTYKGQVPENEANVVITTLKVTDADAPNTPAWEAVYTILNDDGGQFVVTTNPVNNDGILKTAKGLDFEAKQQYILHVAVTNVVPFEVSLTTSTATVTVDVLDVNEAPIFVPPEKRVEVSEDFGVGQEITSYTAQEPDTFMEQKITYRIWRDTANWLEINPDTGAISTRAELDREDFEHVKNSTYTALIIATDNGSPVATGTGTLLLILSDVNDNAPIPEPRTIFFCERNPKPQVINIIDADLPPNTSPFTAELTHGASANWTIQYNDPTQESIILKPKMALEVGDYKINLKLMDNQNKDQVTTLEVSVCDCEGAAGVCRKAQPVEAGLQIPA

For the substance “HA (hemagglutinin complex) (from UniProt P46085)”, the Kd (usually the free concentration of one partner at which half of the binding sites on the other are occupied at equilibrium, for simple one-to-one binding) is 2300 nM.
